From patent US8628762B2, “T-helper cell type 17 lineage-specific adjuvants, compositions and methods” (Icahn School of Medicine at Mount Sinai, priority 2008, dated 2014)

Test system: Naïve CD4 T cells
Assay: Intracellular staining (IL-17, IFN-γ, IL-10, Foxp3) of CD4 T cells cultured with DCCM, flow cytometry
Assay type: cell-based, C57BL/6J mice
Conditions: IL-6 added to DCCM-apoptotic B-cells or DCCM-apoptotic neutrophils
Description: Naïve CD4 T cells were isolated first by sorting with MACS® CD4^+ beads (Miltenyi Biotech, Auburn, Calif.) according to manufacturer's instructions and then by fluorescence activated cell sorting (FACS) using a MoFlo™, Vantage, or Influx™ cell sorter for CD25^−CD44^lowCD62L^high cells using allophycocyanin (APC)-conjugated anti-CD25 monoclonal antibody (mAb) (clone PC61.5), FITC-conjugated CD62L mAb (clone MEL-14), and PE-Cy5-conjugated CD44 mAb (clone IM7) (all from eBioscience™, San Diego, Calif.). Cells were grown in complete IMDM (Gibco, Carlsbad, Calif.) supplemented with 10% FBS, 100 μg/mL penicillin, 100 μg/mL streptomycin, 2 mM L-glutamine, 10 mM HEPES, and 1 nM sodium pyruvate, and activated on 48-well tissue-culture plates which had been coated with 4 μg anti-CD3 (clone 2C11) for 3 h at 37° C., then washed 3 times with PBS. […]
Because development of Treg cells is reciprocally related to TH17 cells^10 expression of Foxp3, a transcription factor unique to Treg cells^19 was examined. After 3 days of culture with DCCM from the indicated groups, T cells were restimulated with PMA and ionomycin for 4 hours with Brefeldin A before intracellular cytokine staining for IL-17 and IFN-γ was performed, and expression of these cytokines was determined by FACS. […]

B1: IL-6: cytokine interleukin-6 (Peprotech), 50 ng/mL (protein, UniProt P08505 25-211, looked up)
Interleukin-6: FPTSQVRRGDFTEDTTPNRPVYTTSQVGGLITHVLWEIVEMRKELCNGNSDCMNNDDALAENNLKLPEIQRNDGCYQTGYNQEICLLKISSGLLEYHSYLEYMKNNLKDNKKDKARVLQRDTETLIHIFNQEVKDLHKIVLPTPISNALLTDKLESQKEWLRTKTIQFILKSLEEFLKVTLRSTRQT
Foxp3 expression: markedly impaired Foxp3 expression
IL-17 production: restored IL-17 production
